Results from patent US8673270B2, “RGD-containing peptidomimetics and uses thereof” (priority 2008, dated 2014).
Where two headings read alike, the source gives them in different places.

Tests used:
human αvβ3 integrin = biological target: T1, human αvβ3 integrin (Homo sapiens, UniProt P05106+P06756); assay: Competitive binding experiments (determination of IC50) against c[RGDfK]-biotin, ELISA; details: competition with c[RGDfK]-biotin (10^−3M), coated integrin
T1 construct: purchased Chemicon
Experimental: (viii) Integrin binding test by ELISA. Nunc immuno-module strips (Nunclon, Cat#167008, Daniel Biotech, Israel) were coated for overnight with 2 μg/ml human integrin αvβ3 (Chemicon, Cat#CC1020, Biotest, Israel) dissolved in 0.06 M carbonate-bicarbonate buffer. Strips were blocked for 2 hrs at RT with 2% bovine serum albumin (BSA) (Sigma, Cat#A-9647, Israel) in phosphate buffered saline (PBS) (Biological Industries, Israel). A mixture of c[RGDfK]-biotin (10^−3M) and a test compound at different concentrations (10^−2, 10^−3, 10^−4 and 10^−5M) diluted in assay buffer (50 mM Tris HCl, pH=7.7, 0.5% BSA, 0.15 M NaCl, 0.01% Tween 20) was added to the coated strips and was incubated overnight at RT with shaking. After washing with PBS, anti-biotin antibodies labeled by alkaline phosphatase (1:200) (Miltenyi Biotec, Almog, Israel) were added and incubated for 1 hr at RT. The samples were incubated with p-nitrophenyl phosphate substrate (p-NPP, Calbiochem, Mercury, Israel) and read at 405 nm.
(xvi) Competitive binding experiments (determination of IC50). Immuno-module strips MAXISORP (Nunc, Danyel Biotech, Israel) were coated with 50 μl/well of 2 μg/ml human αvβ3 integrin (Chemicon, USA) overnight and blocked with 2% BSA (Sigma, Israel) for 2 hrs at RT. After wash with Tris buffered saline-Tween (TBST) buffer, a mixture of RGD peptide c[RGDfK]-biotin (10^−3M) and the tested RGD-conjugate at different concentrations (10^−2, 10^−3, 10^−4 and 10^−5 M) was added in triplicates and was incubated overnight and shaken at RT. After wash with PBS buffer, anti-biotin antibodies labeled by alkaline phosphatase (1:200) (Miltenyi Biotec, Germany) were added and incubated for 1 hr at RT. The samples were incubated with p-NPP substrate and read at 405 nm on Multiscan Spectrum (Labotal, Israel). The data were plotted to graph of dependence of binding percent out of concentration of RGD-conjugate and IC50 value was determined. […]

[1] = system: LNCaP prostate cancer cells; assay: In-vivo prostate cancer model, IVIS imaging; details: for Fluorescent level in excised organs: 14 hrs after injection, prostate and ovarian tumor-bearing mice; for Time of highest fluorescent level in tumor after injection: LNCaP prostate tumor
[2] = system: MLS human ovarian carcinoma cells; set-up: species or system CD-1 nude mice; details: mouse, in vivo
Source text: (ix) In-vivo ovarian carcinoma model. Female CD-1 nude mice (7-9 weeks old, 23-28 gr) were anaesthetized and subcutaneously (SC) implanted with MLS human ovarian carcinoma cells (obtained from Prof. M. Neeman, the Weizmann Institute of Science, Israel) suspension (2-3×10^6 cells/mouse). Tumors reached treatment size, diameter 6-8 mm, within 2-3 weeks.
Animals were anaesthetized by gas with mixture of 7:3 N2O:O2 containing 2% isofluorane (Medeva, Bethlehem, Pa.) or by intraperitoneal (IP) injection with mixture of 5 mg/kg ketamine (Rhone Merieux, Lyon, France) and 1 mg/kg pompun (Bayer, Leverkusen, Germany) (85:15, v:v).
(xiii) Fluorescent imaging protocol for BTA-RGD conjugates. Test compounds (8 mg/kg) were injected into the tail vein of IP anaesthetized tumor-bearing mice. Images of gas-anaesthetized animals were taken at 6, 8, 10, 12, 14 and 24 hrs (in some cases also at 48 and 72 hrs) after injection using IVIS® 100 Series Imaging System. The excitation and emission filters were set in the IVIS to 710-760 nm and to 810-860 nm, respectively. The emission filter with wavelength closest to the emission peak of the compound was selected among available filters in the standard configuration of IVIS.
(xiv) Fluorescent imaging protocol for FITC-RGD conjugates. Test compounds (8 mg/kg) were injected into the tail vein of IP anaesthetized tumor-bearing mice. Images of gas-anaesthetized animals were taken at 6 and 8 hrs after injection. Animals were sacrificed at 8 hrs, the organs (tumor, kidney, liver) were excited and images of the organs were taken using IVIS® 100 Series Imaging System. The excitation and emission filters were set in the IVIS to 445-490 nm and to 515-575 nm, respectively. The emission filter with wavelength closest to the emission peak of FITC was selected among available filters in the standard configuration of IVIS.

Toxicity study on rats = assay type: in vivo; details: 50 mg/kg into tail vein; for Necrosis or inflammation in liver or kidneys: after five days
Experimental: The various conjugates at dose of 50 mg/kg were injected into the tail vein during 1-2 min.

[3] = system: MDA-MB-231-RFP human breast cancer cells; assay: In-vivo breast cancer model, orthotopic large necrotic tumor, IVIS imaging; set-up: species or system CD-1 nude mice; details: six days post injection, necrotic tumors 1-1.5 cm^3
Experimental: (xii) In-vivo breast cancer model. Female CD-1 nude mice (6-8 weeks old, 20-25 g, obtained from Harlan Biotech Israel, Rehovot, Israel) were implanted with MDA-MB-23′-RFP human breast cancer cells (4×10^6 cells/mouse). […] When tumors reached the size of 1-1.5 cm^3 for necrotic tumors, mice were anaesthetized by IP injection of 30 μl mixture of 85:15 ketamine:xylazine, and the test conjugate (15 mg/kg) was then injected to the tail vein.
In this study, the specific accumulation pattern of conjugates 1, 4 and 41 in orthotopic primary lesions of mammary carcinoma model, monitored by fluorescence signal generated by the tumor, and the fluorescence signal generated by these conjugates were examined. The localization of the conjugates in the tumors as time progress was also determined. Animals were treated as described in Materials and Methods, and fluorscence of both tumor cells and conjugates 1, 4 and 41 was monitored by IVIS® 100 imaging system from day 1 to 7.
FIGS. 1A, 1B and 1C show the accumulation patterns of conjugates 1, 4 and 41, respectively, in orthotopic human breast MDA-MB-231-RFP primary large tumor in the mammary pad of CD-1 nude female mice, using the Xenogen IVIS® System. Whole animal images° were recorded concomitantly using filter sets comprising excitation filter 500-550 nm and emission filter 575-650 nm. Background filter set for subtraction the tissue auto fluorescence: excitation filter 460-490 nm and emission filter 575-650 nm. Photosensitizer imaging main filter set: excitation filter 665-695 nm, emission filter 810-875 nm.

[4] = system: MLS human ovarian carcinoma cells; assay: Integrin binding assay (in vitro), fluorescence imaging of cells incubated with conjugate; assay type: cell-based; details: 100 μM/well, 3 hrs at 37° C., IVIS imaging
Experimental: (xv) In-vitro binding assay. MLS human ovarian carcinoma cells were cultured as monolayers in minimum essential medium (MEM-alpha) containing 1 g/l D-glucose, pH 7.4, 10% fetal calf serum (FCS), glutamine (2 mM), penicillin (0.06 mg/ml) and streptomycin (0.1 mg/ml), and were grown at 37° C. in 5% CO2-humidified atmosphere. At 48 hrs before experiment, cells were seeded at 6 well plates (3×10^5 cells/well).
Expression of αvβ3 integrin on MLS cells. The cells were grown on cover slips. Following overnight serum starvation, fixation with 4% paraformaldehyde (Sigma, Israel) and permeabilization with 0.2% Triton X-100 (Sigma, Israel), cells were incubated in blocking solution (10% of horse serum) (Biological Industries, Israel) for 1 hr at RT. Cells were then incubated with mouse anti-human αvβ3 integrin antibodies (1:100) (Chemicon, Biotest, Israel) for 1 hr at RT. Secondary rabbit FITC-labeled anti-mouse IgG (1:200) (Sigma, Israel) were applied to cells for 1 hr at RT. Imaging was performed by fluorescent microscope (Nikon Optiphot2, Japan) equipped with a digital camera (DVC Company, Inc., Austin, Tex.).
In vitro binding assay. RGD-conjugates were initially dissolved in DMSO to yields 4×10^−3 M. The stock solutions were then diluted 1:40 in culture medium and added into MILS or HT29 cells (100 μM/well). Cells were incubated at 37° C. in 5% CO2-humidified atmosphere for 3 hrs. Cells were then washed 3 times with PBS and images were performed on a Xenogen IVIS® 100 Series Imaging System. The excitation and emission filters set in the IVIS for BTA-RGD were 710-760 nm and 810-860 nm, respectively, and for FITC-RGD were 445-490 nm and 515-575 nm, respectively.

[5] = system: LNCaP prostate cancer cells; details: mouse, in vivo

Row | Compound | IC50 (human αvβ3 integrin) [µM] | Fluorescent level in excised organs [1] | Time of highest fluorescent level in tumor after injection [1] [h] | Time of highest fluorescent level in tumor after injection [2] [h] | Time the conjugate stayed in the tumor [2] | Survival, behavior and motility (Toxicity study on rats) | Necrosis or inflammation in liver or kidneys (Toxicity study on rats) | Localization of conjugate within breast tumor [3] | Integrin binding assay (in vitro) [4] | Time of highest fluorescent level in tumor after injection [5] [h]
1 | CCC1c2cc3[nH]c(c(CC(=O)OC)c4nc(cc5[nH]c(cc(n2)C1C)c(C(C)=O)c5C)C(C)C4CCC(=O)N[C@H]1CNC(=O)[C@H](CC(=O)O)NC(=O)CNC(=O)[C@H](CCCNC(=N)N)NC(=O)NCCNC1=O)c(C(=O)NCCS(=O)(=O)O)c3C (some centres unmarked) [Conjugate 1] | 100 | high fluorescent level observed in the liver and kidney | 8 to 11 | 8 to 11 | up to 48 hrs | Animals were survived and did not show any behavior or motility problems | no evidence of necrosis or inflammation was found in the liver or the kidneys | Accumulate in the Necrotic Core of MDA Necrotic Tumors | Binding | 
2 | CCC1c2cc3[nH]c(c(CC(=O)OC)c4nc(cc5[nH]c(cc(n2)C1C)c(C(C)=O)c5C)C(C)C4CCC(=O)N[C@H]1CCCNC(=O)[C@H](CC(=O)O)NC(=O)CNC(=O)[C@H](CCCNC(=N)N)NC(=O)NCCNC1=O)c(C(=O)NCCS(=O)(=O)O)c3C (some centres unmarked) [Conjugate 4] | 300 | high fluorescent level observed in the liver and kidney | 8 to 14 | 8 to 14 | up to 48 hrs | Animals were survived and did not show any behavior or motility problems | no evidence of necrosis or inflammation was found in the liver or the kidneys | Accumulate in the Necrotic Core of MDA Necrotic Tumors | Binding | 
3 | CCC1c2cc3[nH]c(c(CC(=O)OC)c4nc(cc5[nH]c(cc(n2)C1C)c(C(C)=O)c5C)C(C)C4CCC(=O)NCCCC[C@@H]1NC(=O)N[C@@H](Cc2ccccc2)C(=O)NC[C@@H](C(N)=O)NC(=O)[C@H](CC(=O)O)NC(=O)CNC(=O)[C@H](CCCNC(=N)N)NC1=O)c(C(=O)NCCS(=O)(=O)O)c3C (some centres unmarked) [Conjugate 41] | 100 |  |  | 8 to 12 | ≤ 24 h | Animals were survived and did not show any behavior or motility problems | no evidence of necrosis or inflammation was found in the liver or the kidneys | Accumulate in the Necrotic Core of MDA Necrotic Tumors | In vitro: binding | 8 to 12
